Measurements taken from PMC9638026, “DNA double-strand break-derived RNA drives TIRR/53BP1 complex dissociation”.

Experiments:
[1] = target: TIRR (6-211)-His (UniProt Q9BRJ7 6-211); experiment: SPR; SPR: 20 mM HEPES pH 6, 300 mM NaCl, 0.05% P20, 25 C; EMSA: 50 mM HEPES, 50 mM NaCl, 5% glycerol, 20 mM MgCl2, 0.01% Tween 20, 37 C 15 min, 10 nM probe; settings: protein: recombinant, tags: His
[2] = target: 53BP1-Tudor (Homo sapiens, UniProt Q12888 1484-1603); experiment: EMSA; 20 mM Mg2+; SPR: 20 mM HEPES pH 6, 300 mM NaCl, 0.05% P20, 25 C; EMSA: 50 mM HEPES, 50 mM NaCl, 5% glycerol, 20 mM MgCl2, 0.01% Tween 20, 37 C 15 min, 10 nM probe; settings: protein: commercial; label: 32P 5' in EMSA; hairpin
Sequence of 53BP1-Tudor (Q12888 1484-1603): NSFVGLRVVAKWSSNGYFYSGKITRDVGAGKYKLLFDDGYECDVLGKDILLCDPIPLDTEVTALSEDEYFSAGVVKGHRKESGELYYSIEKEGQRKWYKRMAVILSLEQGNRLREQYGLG

Sequence of TIRR (6-211)-His (Q9BRJ7 6-211): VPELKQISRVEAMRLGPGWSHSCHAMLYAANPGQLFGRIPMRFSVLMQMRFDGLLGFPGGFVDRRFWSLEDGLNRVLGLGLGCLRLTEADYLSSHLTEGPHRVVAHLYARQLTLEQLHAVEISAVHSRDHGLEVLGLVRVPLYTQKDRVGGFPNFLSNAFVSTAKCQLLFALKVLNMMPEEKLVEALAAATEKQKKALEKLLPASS

B1: dsRNA (dsRNA)
RNA 1: GGACAAGAUGCCUUAUGUGG
RNA 2: CCACAUAAGGCAUCUUGUCC
Kd ([1]; blunt): ~200 µM

B2: RNA beacon (structured_RNA)
RNA: CGCUCCCAAAAAAAAAAACCGAGCG
binding result [2]: no binding | Kd ([1]; label: 32P 5' in EMSA, hairpin): ~100 µM

B3: RNA hairpin (structured_RNA)
RNA: GGACAAGAUGCCUUAUGUGGACUUCACCACAUAAGGCAUCUUGUCC
Kd ([1]; hairpin): ~100 µM
